Substitutions are numbered along the chain they refer to.
B1: 22068 (protein)
chain: MALPVTALLLPLALLLHAARPQLQLQESGPGLVKPSETLSLTCTVSGDSISSGDYYWGWIRQPPGKGLEWIGHIYYSGVTYYNPSLKSRVTISVDTSRNQFSLKLSSVTAADTAVYYCTREDSSNWRSRGQGTLVTVSSLEGGGGSGGGGSGGGGSVEDLKNVFPPEVAVFEPSKAEIAHTQKATLVCLATGFYPDHVELSWWVNGKEVHSGVCTDPQPLKEQPALNDSRYCLSSRLRVSATFWQNPRNHFRCQVQFYGLSENDEWTQDRAKPVTQIVSAEAWGRADCGITSASYHQGVLSATILYEILLGKATLYAVLVSALVLMAMVKRKDSRGRAKRSGSGATNFSLLKQAGDVEENPGPTSMDWIWRILFLVGAATGAHSFEVQLLESGGGLIQPGGSLRLSCAASGFTFSSHAMTWVRQAPGKGLEWVSAISGSGDYTHYADSVKGRFTISRDNSKNTVYLQMNSLRAEDSAVYYCAKDEDGGSLLGHRGQGTLVTVSSTRIQNPDPAVYQLRDSKSSDKSVCLFTDFDSQTNVSQSKDSDVYITDKCVLDMRSMDFKSNSAVAWSNKSDFACANAFNNSIIPEDTFFPSPESSCDVKLVEKSFETDTNLNFQNLSVIGFRILLLKVAGFNLLMTLRLWSSRAKRSGSGVKQTLNFDLLKLAGDVESNPGPSRGHMTEYKPTVRLATRDDVPRAVRTLAAAFADYPATRHTVDPDRHIERVTELQELFLTRVGLDIGKVWVADDGAAVAVWTTPESVEAGAVFAEIGPRMAELSGSRLAAQQQMEGLLAPHRPKEPAWFLATVGVSPDHQGKGLGSAVVLPGVEAAERAGVPAFLETSAPRNLPFYERLGFTVTADVEVPEGPRTWCMTRKPGA
B2: 22126 (protein)
chain: MALPVTALLLPLALLLHAARPEVQLVESGGGLVQPGGSLRLSCAASGFSFSDFWMSWVRQAPGKGLEWVATISQAGSEKDYVDSVKGRFTISRDNAKKSLYLQMNSLRAEDTAVYYCASGVYSFDYRGQGTLVTVSSGTGGGGSGGGGSGGGGSEFDIQMTQSPSSLSASVGDRVTITCKASDHINNWLAWYQQKPGQAPKLLIYGATTLETGVPSRFSGSGSGTDYTLTISSLQPEDFATYYCQQSWNTPWTFGQGTKLEIKRLEDLKNVFPPEVAVFEPSKAEIAHTQKATLVCLATGFYPDHVELSWWVNGKEVHSGVCTDPQPLKEQPALNDSRYCLSSRLRVSATFWQNPRNHFRCQVQFYGLSENDEWTQDRAKPVTQIVSAEAWGRADCGITSASYHQGVLSATILYEILLGKATLYAVLVSALVLMAMVKRKDSRGRAKRSGSGATNFSLLKQAGDVEENPGPTSATMDWIWRILFLVGAATGAHSGPQVQLQESGGGLAQAGGSLRLSCAASGRTFSMGWFRQAPGKEREFVAAITYSGGSPYYASSVRGRFTISRDNAKNTVYLQMNSLKPEDTAVYYCAANPTYGSDWNAENWGQGTQVTVSSGSGGGGSGGGGSGGGGSFEQVQLQQPGAELVKPGASVKMSCKASGYAFSSYWINWMKQKPGQGLEWIGQIYPGDGDTNYNGKFKGRATLTADTSSSTAYMQLSSLTSEDSAVYFCARSITTVVGCAMDYWGQGTSVTVSSTRIQNPDPAVYQLRDSKSSDKSVCLFTDFDSQTNVSQSKDSDVYITDKCVLDMRSMDFKSNSAVAWSNKSDFACANAFNNSIIPEDTFFPSSDVPCDVKLVEKSFETDTNLNFQNLSVIGFRILLLKVAGFNLLMTLRLWSSRAKRSGSGVKQTLNFDLLKLAGDVESNPGPSRGHMTEYKPTVRLATRDDVPRAVRTLAAAFADYPATRHTVDPDRHIERVTELQELFLTRVGLDIGKVWVADDGAAVAVWTTPESVEAGAVFAEIGPRMAELSGSRLAAQQQMEGLLAPHRPKEPAWFLATVGVSPDHQGKGLGSAVVLPGVEAAERAGVPAFLETSAPRNLPFYERLGFTVTADVEVPEGPRTWCMTRKPGA
B3: 22136 (protein)
chain: MALPVTALLLPLALLLHAARPEVQLVESGGGLVQAGGSLRLSCAASGRTFSMGWFRQAPGKEREFVAAITYSGGSPYYADSVKGRFTISRDNAKNTVYLQMNSLKPEDTAVYYCAANPTYGSDWNAENWGQGTQVTVSSGTGGGGSGGGGSGGGGSEFDIQMTQSPSSLSASVGDRVTITCKASDHINNWLAWYQQKPGQAPKLLIYGATTLETGVPSRFSGSGSGTDYTLTISSLQPEDFATYYCQQSWNTPWTFGQGTKLEIKRLEDLKNVFPPEVAVFEPSEAEISHTQKATLVCLATGFYPDHVELSWWVNGKEVHSGVCTDPQPLKEQPALNDSRYCLSSRLRVSATFWQNPRNHFRCQVQFYGLSENDEWTQDRAKPVTQIVSAEAWGRADCGFTSESYQQGVLSATILYEILLGKATLYAVLVSALVLMAMVKRKDSRGRAKRSGSGATNFSLLKQAGDVEENPGPTSATMDWIWRILFLVGAATGAHSGPQVQLQESGGGLAQAGGSLRLSCAASGRTFSMGWFRQAPGKEREFVAAITYSGGSPYYASSVRGRFTISRDNAKNTVYLQMNSLKPEDTAVYYCAANPTYGSDWNAENWGQGTQVTVSSGSGGGGSGGGGSGGGGSFEQVQLQQPGAELVKPGASVKMSCKASGYAFSSYWINWMKQKPGQGLEWIGQIYPGDGDTNYNGKFKGRATLTADTSSSTAYMQLSSLTSEDSAVYFCARSITTVVGCAMDYWGQGTSVTVSSTRIQNPDPAVYQLRDSKSSDKSVCLFTDFDSQTNVSQSKDSDVYITDKCVLDMRSMDFKSNSAVAWSNKSDFACANAFNNSIIPEDTFFPSPESSCDVKLVEKSFETDTNLNFQNLSVIGFRILLLKVAGFNLLMTLRLWSSRAKRSGSGVKQTLNFDLLKLAGDVESNPGPSRGHMTEYKPTVRLATRDDVPRAVRTLAAAFADYPATRHTVDPDRHIERVTELQELFLTRVGLDIGKVWVADDGAAVAVWTTPESVEAGAVFAEIGPRMAELSGSRLAAQQQMEGLLAPHRPKEPAWFLATVGVSPDHQGKGLGSAVVLPGVEAAERAGVPAFLETSAPRNLPFYERLGFTVTADVEVPEGPRTWCMTRKPGA
B4: 22123 (protein)
chain: MALPVTALLLPLALLLHAARPACEVQLLESGGGLIQPGGSLRLSCAASGFTFSSHAMTWVRQAPGKGLEWVSAISGSGDYTHYADSVKGRFTISRDNSKNTVYLQMNSLRAEDSAVYYCAKDEDGGSLLGHRGQGTLVTVSSGTGGGGSGGGGSGGGGSEFDIQMTQSPSSLSASVGDRVTITCKASDHINNWLAWYQQKPGQAPKLLIYGATTLETGVPSRFSGSGSGTDYTLTISSLQPEDFATYYCQQSWNTPWTFGQGTKLEIKRLEDLKNVFPPEVAVFEPSKAEIAHTQKATLVCLATGFYPDHVELSWWVNGKEVHSGVCTDPQPLKEQPALNDSRYCLSSRLRVSATFWQNPRNHFRCQVQFYGLSENDEWTQDRAKPVTQIVSAEAWGRADCGITSASYHQGVLSATILYEILLGKATLYAVLVSALVLMAMVKRKDSRGRAKRSGSGATNFSLLKQAGDVEENPGPTSATMDWIWRILFLVGAATGAHSGPQVQLQESGGGLAQAGGSLRLSCAASGRTFSMGWFRQAPGKEREFVAAITYSGGSPYYASSVRGRFTISRDNAKNTVYLQMNSLKPEDTAVYYCAANPTYGSDWNAENWGQGTQVTVSSGSGGGGSGGGGSGGGGSFEQVQLQQPGAELVKPGASVKMSCKASGYAFSSYWINWMKQKPGQGLEWIGQIYPGDGDTNYNGKFKGRATLTADTSSSTAYMQLSSLTSEDSAVYFCARSITTVVGCAMDYWGQGTSVTVSSTRIQNPDPAVYQLRDSKSSDKSVCLFTDFDSQTNVSQSKDSDVYITDKCVLDMRSMDFKSNSAVAWSNKSDFACANAFNNSIIPEDTFFPSSDVPCDVKLVEKSFETDTNLNFQNLSVIGFRILLLKVAGFNLLMTLRLWSSRAKRSGSGVKQTLNFDLLKLAGDVESNPGPSRGHMTEYKPTVRLATRDDVPRAVRTLAAAFADYPATRHTVDPDRHIERVTELQELFLTRVGLDIGKVWVADDGAAVAVWTTPESVEAGAVFAEIGPRMAELSGSRLAAQQQMEGLLAPHRPKEPAWFLATVGVSPDHQGKGLGSAVVLPGVEAAERAGVPAFLETSAPRNLPFYERLGFTVTADVEVPEGPRTWCMTRKPGA
B5: 22132 (protein)
chain: B4 chain with Q502E, Q506V, A513V, S560D, R563K

Tested on: RAJI cells
Assay: JNG assay, co-culture with RAJI cells
Type: cell-based
Settings: JNG cells expressing construct, co-culture with Raji
In short: (§1)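 Read-out is NFAT-driven GFP measured by flow cytometry after ~4–18 h co-culture of SAR-expressing JNG cells with target cells (E:T about 1:2). SARs were introduced by lentiviral spinfection and selected with puromycin or blasticidin when possible; scores (+/- to 5+ ≈ 5–50% GFP+) are relative to parental JNG cells.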

Molecule	NFAT-GFP ASSAY: Raji
B1	+ (refer to approximately 5%, 10%, 20%, 30%, 40% and 50% GFP positive cells)
B2	5+ (refer to approximately 5%, 10%, 20%, 30%, 40% and 50% GFP positive cells)
B3	3+ (refer to approximately 5%, 10%, 20%, 30%, 40% and 50% GFP positive cells)

Tested on: RS;411
Assay: JNG assay, co-culture with RS;411 cells
Type: cell-based
Settings: co-culture with RS411
In short: as §1

Molecule	NFAT-GFP ASSAY: RS411
B1	+/- (refer to approximately 5%, 10%, 20%, 30%, 40% and 50% GFP positive cells)
B4	4+ (refer to approximately 5%, 10%, 20%, 30%, 40% and 50% GFP positive cells)
B2	+/- (refer to approximately 5%, 10%, 20%, 30%, 40% and 50% GFP positive cells)
B5	4+ (refer to approximately 5%, 10%, 20%, 30%, 40% and 50% GFP positive cells)
B3	+ (refer to approximately 5%, 10%, 20%, 30%, 40% and 50% GFP positive cells)

Tested on: Nalm6 cells
Assay: JNG assay, co-culture with Nalm6 cells
Type: cell-based
Settings: co-culture with Nalm6
In short: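 GFP expression induced through the NFAT pathway was monitored by FACS once SAR-bearing Jurkat reporters had been cultured with target cells at an approximate 1:2 ratio for 4 to 18 hours; parental reporter cells served as the baseline.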

Molecule	NFAT-GFP ASSAY: Nalm6
B1	+/- (refer to approximately 5%, 10%, 20%, 30%, 40% and 50% GFP positive cells)
B4	5+ (refer to approximately 5%, 10%, 20%, 30%, 40% and 50% GFP positive cells)
B2	5+ (refer to approximately 5%, 10%, 20%, 30%, 40% and 50% GFP positive cells)
B5	5+ (refer to approximately 5%, 10%, 20%, 30%, 40% and 50% GFP positive cells)
B3	+ (refer to approximately 5%, 10%, 20%, 30%, 40% and 50% GFP positive cells)

Tested on: L363 cells
Assay: JNG assay, co-culture with L363 cells
Type: cell-based
Settings: co-culture with L363
In short: as §1

Molecule	NFAT-GFP ASSAY: L363
B1	+ (refer to approximately 5%, 10%, 20%, 30%, 40% and 50% GFP positive cells)
B4	3+ (refer to approximately 5%, 10%, 20%, 30%, 40% and 50% GFP positive cells)
B5	4+ (refer to approximately 5%, 10%, 20%, 30%, 40% and 50% GFP positive cells)

From patent publication US20230212319A1, “NOVEL ANTIGEN BINDING DOMAINS AND SYNTHETIC ANTIGEN RECEPTORS INCORPORATING THE SAME” (University of Southern California, priority 2020, published 2023)
